Test results taken from PMC3894413.

Target: BCL-XL (UniProt Q07817)
Test: SPR

UniProt Q07817, sequence (Q07817 whole entry): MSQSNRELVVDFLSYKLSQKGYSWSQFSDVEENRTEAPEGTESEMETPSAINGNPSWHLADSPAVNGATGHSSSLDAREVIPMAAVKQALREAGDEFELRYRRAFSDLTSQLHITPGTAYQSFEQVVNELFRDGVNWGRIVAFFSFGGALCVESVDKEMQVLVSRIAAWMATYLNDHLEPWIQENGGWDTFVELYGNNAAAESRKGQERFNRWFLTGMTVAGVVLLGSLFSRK

fold higher affinity than BIMS2A BH3 for MCL-1: 20 fold
B1: BADS BH3 peptide (peptide)
peptide: NLWAAQRYGRELRRMSDEFVDSFKKG
